Data set [1] relates to HeLa Kyoto. The data set is described as follows: solubility in G1/S (NP-40 vs SDS abundance) (log2 ratio); higher = more soluble. To be noted: cell cycle stage: G1/S.
The subject of data set [2] is HeLa Kyoto. As to the kind of experiment: solubility change mitosis vs G1/S (difference of NP-40 vs SDS log2 ratios) (log2 ratio difference); higher = more soluble in mitosis.
The test system of data set [3] is HeLa Kyoto. The data set is described as follows: thermal stability score vs G1/S (z-score of summed log2 fold changes over temperatures); higher = more thermally stable than in G1/S.
For data set [4], the system named is HeLa Kyoto. The data set is described as follows: melting temperature (median over replicates), in situ; higher = more thermally stable.
The mark [5] stands for this setting: cell cycle stage: early G1 (4.5 h after nocodazole release).
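Throughout, for melting temperature (median over replicates), in situ: HeLa Kyoto cells synchronized by double thymidine or nocodazole block, proteins quantified by TMT10plex mass spectrometry, three independent biological replicates.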
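Throughout, for solubility change mitosis vs G1/S (difference of NP-40 vs SDS log2 ratios): synchronized HeLa Kyoto cells (double thymidine block for G1/S, nocodazole release for mitosis), protein amounts in NP-40 versus SDS lysates quantified by mass spectrometry, three biological replicates.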
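Throughout, for solubility in G1/S (NP-40 vs SDS abundance): HeLa Kyoto cells arrested at G1/S by double thymidine block, proteins quantified by TMT10plex mass spectrometry in mild NP-40 versus SDS extracts, three biological replicates.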
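Throughout, for thermal stability score vs G1/S (z-score of summed log2 fold changes over temperatures): synchronized HeLa Kyoto cells, proteins quantified by TMT10plex mass spectrometry, three biological replicates, mitosis taken 0.5 h after nocodazole release, G1/S directly after double thymidine block.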

In the case of “MASASYHISNLLEKMTSSDKDFRFMATNDLMTELQKDSIKLDDDSERKVVKMILKLLEDKNGEVQNLAVKCLGPLVSKVKEYQVETIVDTLCTNMLSDKEQLRDISSIGLKTVIGELPPASSGSALAANVCKKITGRLTSAIAKQEDVSVQLEALDIMADMLSRQGGLLVNFHPSILTCLLPQLTSPRLAVRKRTIIALGHLVMSCGNIVFVDLIEHLLSELSKNDSMSTTRTYIQCIAAISRQAGHRIGEYLEKIIPLVVKFCNVDDDELREYCIQAFESFVRRCPKEVYPHVSTIINICLKYLTYDPNYNYDDEDEDENAMDADGGDDDDQGSDDEYSDDDDMSWKVRRAAAKCLDAVVSTRHEMLPEFYKTVSPALISRFKEREENVKADVFHAYLSLLKQTRPVQSWLCDPDAMEQGETPLTMLQSQVPNIVKALHKQMKEKSVKTRQCCFNMLTELVNVLPGALTQHIPVLVPGIIFSLNDKSSSSNLKIDALSCLYVILCNHSPQVFHPHVQALVPPVVACVGDPFYKITSEALLVTQQLVKVIRPLDQPSSFDATPYIKDLFTCTIKRLKAADIDQEVKERAISCMGQIICNLGDNLGSDLPNTLQIFLERLKNEITRLTTVKALTLIAGSPLKIDLRPVLGEGVPILASFLRKNQRALKLGTLSALDILIKNYSDSLTAAMIDAVLDELPPLISESDMHVSQMAISFLTTLAKVYPSSLSKISGSILNELIGLVRSPLLQGGALSAMLDFFQALVVTGTNNLGYMDLLRMLTGPVYSQSTALTHKQSYYSIAKCVAALTRACPKEGPAVVGQFIQDVKNSRSTDSIRLLALLSLGEVGHHIDLSGQLELKSVILEAFSSPSEEVKSAASYALGSISVGNLPEYLPFVLQEITSQPKRQYLLLHSLKEIISSASVVGLKPYVENIWALLLKHCECAEEGTRNVVAECLGKLTLIDPETLLPRLKGYLISGSSYARSSVVTAVKFTISDHPQPIDPLLKNCIGDFLKTLEDPDLNVRRVALVTFNSAAHNKPSLIRDLLDTVLPHLYNETKVRKELIREVEMGPFKHTVDDGLDIRKAAFECMYTLLDSCLDRLDIFEFLNHVEDGLKDHYDIKMLTFLMLVRLSTLCPSAVLQRLDRLVEPLRATCTTKVKANSVKQEFEKQDELKRSAMRAVAALLTIPEAEKSPLMSEFQSQISSNPELAAIFESIQKDSSSTNLESMDTS [CAND1]”, the “solubility in G1/S (log2)” value in data set [1] turned out to be 0.0808. Besides, in data set [2], the “solubility change mitosis (log2)” value was -0.0927. Further, the thermal stability score in data set [3] (setting [5]) is -0.92; in data set [3] (cell cycle stage: mitosis), -0.546. The melting temperature in data set [4] (cell cycle stage: G1/S) turned out to be 56.9 °C; in data set [4] (cell cycle stage: mitosis), 56.2 °C.

As for “MASGQGPGPPRQECGEPALPSASEEQVAQDTEEVFRSYVFYRHQQEQEAEGVAAPADPEMVTLPLQPSSTMGQVGRQLAIIGDDINRRYDSEFQTMLQHLQPTAENAYEYFTKIATSLFESGINWGRVVALLGFGYRLALHVYQHGLTGFLGQVTRFVVDFMLHHCIARWIAQRGGWVAALNLGNGPILNVLVVLGVVLLGQFVVRRFFKS [BAK1]”, in data set [1], the “solubility in G1/S (log2)” value was -0.215. The “solubility change mitosis (log2)” value in data set [2] was -0.0672. The results for the thermal stability score in data set [3] (setting [5]) and in data set [3] (cell cycle stage: mitosis) were -0.0676 and -0.207, respectively. In addition, in data set [4] (cell cycle stage: mitosis), the melting temperature worked out at 55.7 °C.

Consider “MASGSVAECLQQETTCPVCLQYFAEPMMLDCGHNICCACLARCWGTAETNVSCPQCRETFPQRHMRPNRHLANVTQLVKQLRTERPSGPGGEMGVCEKHREPLKLYCEEDQMPICVVCDRSREHRGHSVLPLEEAVEGFKEQIQNQLDHLKRVKDLKKRRRAQGEQARAELLSLTQMEREKIVWEFEQLYHSLKEHEYRLLARLEELDLAIYNSINGAITQFSCNISHLSSLIAQLEEKQQQPTRELLQDIGDTLSRAERIRIPEPWITPPDLQEKIHIFAQKCLFLTESLKQFTEKMQSDMEKIQELREAQLYSVDVTLDPDTAYPSLILSDNLRQVRYSYLQQDLPDNPERFNLFPCVLGSPCFIAGRHYWEVEVGDKAKWTIGVCEDSVCRKGGVTSAPQNGFWAVSLWYGKEYWALTSPMTALPLRTPLQRVGIFLDYDAGEVSFYNVTERCHTFTFSHATFCGPVRPYFSLSYSGGKSAAPLIICPMSGIDGFSGHVGNHGHSMETSP [TRIM27]”, for which the “solubility in G1/S (log2)” value in data set [1] is -0.499. In addition, in data set [2], the “solubility change mitosis (log2)” value is -0.135. The thermal stability score in data set [3] (setting [5]) was 1.44; in data set [3] (cell cycle stage: mitosis) it was 3.24. For the same sequence, the melting temperature in data set [4] (cell cycle stage: G1/S) was found to be 50.9 °C; in data set [4] (cell cycle stage: mitosis), 50.5 °C.

“MASGVQVADEVCRIFYDMKVRKCSTPEEIKKRKKAVIFCLSADKKCIIVEEGKEILVGDVGVTITDPFKHFVGMLPEKDCRYALYDASFETKESRKEELMFFLWAPELAPLKSKMIYASSKDAIKKKFQGIKHECQANGPEDLNRACIAEKLGGSLIVAFEGCPV [DSTN]”: the “solubility in G1/S (log2)” value in data set [1] is 0.0748. Also, in data set [2], the “solubility change mitosis (log2)” value is -0.06. Moreover, the thermal stability score in data set [3] (setting [5]) is -0.977; in data set [3] (cell cycle stage: mitosis), -2.53. The melting temperature in data set [4] (cell cycle stage: G1/S) was 54.1 °C; in data set [4] (cell cycle stage: mitosis), 53.3 °C.

In the case of “MASKCPKCDKTVYFAEKVSSLGKDWHKFCLKCERCSKTLTPGGHAEHDGKPFCHKPCYATLFGPKGVNIGGAGSYIYEKPLAEGPQVTGPIEVPAARAEERKASGPPKGPSRASSVTTFTGEPNTCPRCSKKVYFAEKVTSLGKDWHRPCLRCERCGKTLTPGGHAEHDGQPYCHKPCYGILFGPKGVNTGAVGSYIYDRDPEGKVQP [CRIP2]”, in data set [1], the “solubility in G1/S (log2)” value is 0.608. For the same sequence, the “solubility change mitosis (log2)” value in data set [2] turned out to be 0.0882. For the same sequence, the thermal stability score was -3.58 in data set [3] (setting [5]) and -3.7 in data set [3] (cell cycle stage: mitosis). Also, the values for the melting temperature in data set [4] (cell cycle stage: G1/S) and in data set [4] (cell cycle stage: mitosis) were 55 °C and 53.2 °C, respectively.

As for “MASLEVSRSPRRSRRELEVRSPRQNKYSVLLPTYNERENLPLIVWLLVKSFSESGINYEIIIIDDGSPDGTRDVAEQLEKIYGSDRILLRPREKKLGLGTAYIHGMKHATGNYIIIMDADLSHHPKFIPEFIRKQKEGNFDIVSGTRYKGNGGVYGWDLKRKIISRGANFLTQILLRPGASDLTGSFRLYRKEVLEKLIEKCVSKGYVFQMEMIVRARQLNYTIGEVPISFVDRVYGESKLGGNEIVSFLKGLLTLFATT [DPM1]”, the “solubility in G1/S (log2)” value in data set [1] is -0.0525. For the same sequence, the “solubility change mitosis (log2)” value in data set [2] stood at 0.0355. The thermal stability score is -2.69 in data set [3] (setting [5]) and 1.91 in data set [3] (cell cycle stage: mitosis). Moreover, the values for the melting temperature in data set [4] (cell cycle stage: G1/S) and in data set [4] (cell cycle stage: mitosis) were 53.2 °C and 52.7 °C, respectively.

These data come from the supplement of paper PMC5998384.
